In the supplement of paper PMC7125110:
± gives the standard error. This sample holds only a part of the variants without activity.

B1: glmS ribozyme (parent)
chain: AUAAAAGCGCCAGAACUACAGAAAUGUAGUUGACGAGGAGGAGGUUUAUCGAAUUUUCGGCGGAUGCCUCCAAA

Variants of: B1
Assay: self-cleavage kobs at 640 uM GlcN6P; higher = faster cleavage; RNA array
Conditions: with glucosamine-6-phosphate
In short: (§1)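 Barcoded ribozyme variants were transcribed in situ on sequenced MiSeq chips by E. coli RNA polymerase. At 37 °C, a hybridised Cy3 probe tracked them while glucosamine-6-phosphate (40 μM to 10 mM) in HEPES/KCl/Mg(OAc)2 buffer flowed in and tiles were imaged over ~14 h. Per-tile medians of signals normalised to baseline and to non-cleaving reference variants were fit to one- or two-exponential decays, giving kobs. kcat and KM came from weighted Michaelis–Menten fits across concentrations.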

AUAAAAGCGUCAGAACUACAGAAAUGUAGUUGGCGAGGAUGAGGUUUAUCGAAUUUUCGGCGGAUGCCUCCAAA and AUAAAAGCGUCAGAUCUACAGAAAUGUAGUUGACAAGGAGGAGGUUUAUCGAAUUUUCGGGGGAUGCCUCCAAA cannot be ordered by “self-cleavage kobs at 640 uM GlcN6P” value: less than 1e-05 s⁻¹ for the first, less than 1e-05 s⁻¹ for the second.

AUAAAAGCGUCAGAACUACAGAAAUGUAGUUGCCGAGGAGGAGGUCUAUCCAAUUUUCGCCGGAUGCCUCCAAA and AUAAAAGCGUCUGAACUACAGAAAUGUACUUGACGAGGAGUAGGUUUAUCGAAUUUUCGGCGGAUGCCUUCAAA cannot be ordered by “self-cleavage kobs at 640 uM GlcN6P” value: less than 1e-05 s⁻¹ for the first, less than 1e-05 s⁻¹ for the second.

AUAAAAGCGUCAGAACUACAGAAAUGUAGUUGACGAGGUGGAGGUUUAUCGUAUUUUGGGCGGAUGCCUCUAAA and AUAAAAGCGUCAGAACUACAGAAAUGUAGUUGACGAGGUGGAGGUUUAUCGAAUUUUCGGCAGAUGCCUCCAAA cannot be ordered by “self-cleavage kobs at 640 uM GlcN6P” value: less than 1e-05 s⁻¹ for the first, less than 1e-05 s⁻¹ for the second.

AUAAAAGCGGCAGAACUACAGAAAUGUAGUUGACGAGGAGGAGGUUCACCGAAUGUUCGGCGGAUGCCUCCAAA and AUAAAAGCGUCAGAACUACAGAAAUGUAUUUGACGAGGAGGAGGUUUAUCGAAUGUUCGGCGGAUGCCUCCAAA cannot be ordered by “self-cleavage kobs at 640 uM GlcN6P” value: less than 1e-05 s⁻¹ for the first, less than 1e-05 s⁻¹ for the second.

Compared with AUAAAAGCGUCAGAACUACAGAAAUGUAGUUAACGAGGAGGAGGUUUAUCGAAUUUUCAACGGAUGCCUCCAAA, AUAAAAGCGUCAGUAUUACAGAAAUGUAGUUGACGAGGAGGAGGUUUAUCGAAUUUUCGGCGGAUGCGUCCAAA is higher in “self-cleavage kobs at 640 uM GlcN6P” value: less than 1e-05 s⁻¹ for the first, 0.00169 ± 0.00051 s⁻¹ for the second.

First: AUAAAAGCGGCAGAACUACAGAAAUGUAGCUGACGAGGAGGAGGUUUAUCGAAUUUUCGGCGGAUGCGUCCAAA
Second: AUAAAAGCGUCAGAAUUACAGAAAUGUAGUUAACGAGGAGGAGGUUUAUGGAAUUUUCGGCGGAUGCCUCCAAA
The “self-cleavage kobs at 640 uM GlcN6P” value of the first is 3.4-fold lower: 9.65e-05 ± 3.5e-05 s⁻¹ for the first, 0.000327 ± 0.00015 s⁻¹ for the second.

AUAAAAGCGUCAGAAAUACAGAAAUGUAGUUGACGAGGAGGAGGUUUAUCGUAUUUUCGGCGGAUGCCUCCAAA and AUAAAAGCGGCAGAACUACAGAAAUGUAGUUGACGAGGAUGAGGUUUAUCGAAUUUUCGGCGGAUGCCUCUAAA cannot be ordered by “self-cleavage kobs at 640 uM GlcN6P” value: less than 1e-05 s⁻¹ for the first, less than 1e-05 s⁻¹ for the second.

Going from AUAAAAGCGUCAGAACUACAGAAAUGUAGUUGACGAGGAGGAGGUUUAUCGCAUUUUGGGCGGAUGCCUCCAAA to AUAAAAGCGUCAGAACUACAGAAAUGUAGUUGACGUGGAGGAGGUUUAUCGAAUUUUCGGCGGAUGCCUACAAA, the “self-cleavage kobs at 640 uM GlcN6P” value rises from less than 1e-05 s⁻¹ to 0.00107 ± 0.00039 s⁻¹.

AUAAAAGCGUCAAAACUACAGAAAUGUAGUUGACGAGGAGGAGGGUUACCGAAUUUUCGGCGGAUGCCUCCAAA and AUAAAAGCGUCAAAACUACAGAAAUGUAAUUGACGAGGAGAAGGUUUAUCGAAUUUUCGGCGGAUGCCUCCAAA cannot be ordered by “self-cleavage kobs at 640 uM GlcN6P” value: less than 1e-05 s⁻¹ for the first, less than 1e-05 s⁻¹ for the second.

AUAAAAGCGUCAGAAUUACAGAAAUGUAGUUGACGAGGUGGAGGUUUAUCGAAUUUUCGUCGGAUGGCGCCAAA and AUAAAAGCGGCAGAACUACAGAAAUGUAGUUGACGAGGAGGAGUUUUAUCGAAUUUUCGGCGGAUGCCUUCAAA cannot be ordered by “self-cleavage kobs at 640 uM GlcN6P” value: less than 1e-05 s⁻¹ for the first, less than 1e-05 s⁻¹ for the second.

Compared with AUAAAAGCGUCAGAACUACAGAAAUGUAGUUGACGAGGAGGAGGUUUAUCGAUUUUUCGGCGGAUGAGUCCAAA, AUAAAAGCGGCAGAACUACAGAAAUGUAGUUGACGAGGAGGAGGUUUAUCGAAUUUUCGUCGUAUGCCUCCAAA is lower in “self-cleavage kobs at 640 uM GlcN6P” value: 4.13e-05 ± 1.9e-05 s⁻¹ for the first, less than 1e-05 s⁻¹ for the second.

First: AUAAAAGCGGCAGAACUACAGAAAUGUAGUUGACGAGGAGGAGGUUUAUCGAAAUUUGGGCCGAUGGCUCCAAA
Second: AUAAAAGCGGCAGAACUACAGAAAUGUAGUUGACAAGGAGGCGGUUUAUCGAAUUUUCGGCGGAUGCCUCCAAA
The “self-cleavage kobs at 640 uM GlcN6P” value of the first is higher: 6.44e-05 ± 2.7e-05 s⁻¹ for the first, less than 1e-05 s⁻¹ for the second.

AUAAAAGCGGCAGAACUACAGAAAUGUAGUUGACGAGAAGGAGGUUUAUCGAAUUUUGGGCGGCUGCCUCCAAA was tested, and the “self-cleavage kobs at 640 uM GlcN6P” value was 0.000102 ± 4.5e-05 s⁻¹.

Variants of: B1
Assay: self-cleavage kobs at 2500 uM GlcN6P; higher = faster cleavage; RNA array
Conditions: with glucosamine-6-phosphate
In short: as §1

AUAAAAGCGUCAGAUCUACAGAAAUGUAGUUGACAAGGAGGAGGUUUAUCGAAUUUUCGGGGGAUGCCUCCAAA and AUAAAAGCGUCAGAACUACAGAAAUGUAGUUGCCGAGGAGGAGGUCUAUCCAAUUUUCGCCGGAUGCCUCCAAA cannot be ordered by “self-cleavage kobs at 2500 uM GlcN6P” value: less than 1e-05 s⁻¹ for the first, less than 1e-05 s⁻¹ for the second.

AUAAAAGCGUCUGAACUACAGAAAUGUACUUGACGAGGAGUAGGUUUAUCGAAUUUUCGGCGGAUGCCUUCAAA and AUAAAAGCGUCAGAACUACAGAAAUGUAGUUGACGAGGUGGAGGUUUAUCGUAUUUUGGGCGGAUGCCUCUAAA cannot be ordered by “self-cleavage kobs at 2500 uM GlcN6P” value: less than 1e-05 s⁻¹ for the first, less than 1e-05 s⁻¹ for the second.

Compared with AUAAAAGCGUCAGAACUACAGAAAUGUAUUUGACGAGGAGGAGGUUUAUCGAAUGUUCGGCGGAUGCCUCCAAA, AUAAAAGCGUCAGUAUUACAGAAAUGUAGUUGACGAGGAGGAGGUUUAUCGAAUUUUCGGCGGAUGCGUCCAAA is higher in “self-cleavage kobs at 2500 uM GlcN6P” value: less than 1e-05 s⁻¹ for the first, 0.000319 ± 0.00011 s⁻¹ for the second.

Compared with AUAAAAGCGUCAGAAUUACAGAAAUGUAGUUAACGAGGAGGAGGUUUAUGGAAUUUUCGGCGGAUGCCUCCAAA, AUAAAAGCGGCAGAACUACAGAAAUGUAGUUGACGAGGAUGAGGUUUAUCGAAUUUUCGGCGGAUGCCUCUAAA is lower in “self-cleavage kobs at 2500 uM GlcN6P” value: 9.98e-05 ± 3.8e-05 s⁻¹ for the first, less than 1e-05 s⁻¹ for the second.

AUAAAAGCGUCAGAACUACAGAAAUGUAGUUGACGAGGAGGAGGUUUAUCGCAUUUUGGGCGGAUGCCUCCAAA and AUAAAAGCGUCAGAAUUACAGAAAUGUAGUUGACGAGGUGGAGGUUUAUCGAAUUUUCGUCGGAUGGCGCCAAA cannot be ordered by “self-cleavage kobs at 2500 uM GlcN6P” value: less than 1e-05 s⁻¹ for the first, less than 1e-05 s⁻¹ for the second.

Compared with AUAAAAGCGGCAGAACUACAGAAAUGUAGUUGACGAGGAGGAGGUUUAUCGAAAUUUGGGCCGAUGGCUCCAAA, AUAAAAGCGGCAGAACUACAGAAAUGUAGUUGACAAGGAGGCGGUUUAUCGAAUUUUCGGCGGAUGCCUCCAAA is lower in “self-cleavage kobs at 2500 uM GlcN6P” value: 6.02e-05 ± 2.4e-05 s⁻¹ for the first, less than 1e-05 s⁻¹ for the second.
